{
  "source": "paper PMC7654431",
  "binders": {"B1": {"name": "SAXS primer/template (dsDNA)", "DNA 1": "TGGCAGGCAGGTGGTCTTGCCGGTC", "DNA 2": "GATCCCTCGACCGGCAAGACCACCTGCCTGCCA", "modifications": "3'-terminal ddC on primer"}},
  "biological_target": "T7 DNA polymerase gp5;thioredoxin (trx) (bacteriophage T7;Escherichia coli, UniProt P00581;P0AA25 1-704;2-109, |)",
  "sequence (P00581 whole entry, chain 1 of 2)": "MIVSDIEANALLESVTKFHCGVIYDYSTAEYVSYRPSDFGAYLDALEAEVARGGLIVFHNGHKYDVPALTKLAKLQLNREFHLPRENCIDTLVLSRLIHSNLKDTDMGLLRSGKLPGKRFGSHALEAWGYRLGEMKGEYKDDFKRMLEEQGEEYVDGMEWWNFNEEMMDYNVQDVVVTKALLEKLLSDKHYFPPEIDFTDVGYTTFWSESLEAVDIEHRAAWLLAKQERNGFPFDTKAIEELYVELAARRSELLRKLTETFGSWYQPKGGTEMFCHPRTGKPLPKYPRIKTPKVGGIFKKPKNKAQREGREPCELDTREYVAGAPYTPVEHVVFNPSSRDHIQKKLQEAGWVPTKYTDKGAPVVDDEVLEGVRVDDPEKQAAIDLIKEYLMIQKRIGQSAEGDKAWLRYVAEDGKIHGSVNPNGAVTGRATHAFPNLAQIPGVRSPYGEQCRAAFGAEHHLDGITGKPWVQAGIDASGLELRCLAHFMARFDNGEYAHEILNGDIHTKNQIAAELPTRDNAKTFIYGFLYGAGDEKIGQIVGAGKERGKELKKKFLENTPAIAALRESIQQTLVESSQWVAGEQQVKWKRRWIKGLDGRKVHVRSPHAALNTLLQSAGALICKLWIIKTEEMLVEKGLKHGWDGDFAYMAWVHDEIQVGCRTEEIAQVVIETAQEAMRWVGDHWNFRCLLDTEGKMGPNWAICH",
  "sequence (P0AA25 2-109, chain 2 of 2)": "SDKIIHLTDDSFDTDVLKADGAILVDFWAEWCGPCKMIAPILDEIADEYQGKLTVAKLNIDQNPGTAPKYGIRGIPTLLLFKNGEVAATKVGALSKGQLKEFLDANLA",
  "experiment": "SEC-SAXS-MALS",
  "data": [
    {"binder": "B1", "values": [
      {"measurement": "binding result", "result": "binds"}
    ]}
  ]
}
